Experimental data published in PMC4622665 (mAbs, 2014).

Target: human formyl peptide receptor 1 (human, UniProt P21462)
Experiment: FMAT competition binding on cells

Chain of human formyl peptide receptor 1 (P21462 whole entry): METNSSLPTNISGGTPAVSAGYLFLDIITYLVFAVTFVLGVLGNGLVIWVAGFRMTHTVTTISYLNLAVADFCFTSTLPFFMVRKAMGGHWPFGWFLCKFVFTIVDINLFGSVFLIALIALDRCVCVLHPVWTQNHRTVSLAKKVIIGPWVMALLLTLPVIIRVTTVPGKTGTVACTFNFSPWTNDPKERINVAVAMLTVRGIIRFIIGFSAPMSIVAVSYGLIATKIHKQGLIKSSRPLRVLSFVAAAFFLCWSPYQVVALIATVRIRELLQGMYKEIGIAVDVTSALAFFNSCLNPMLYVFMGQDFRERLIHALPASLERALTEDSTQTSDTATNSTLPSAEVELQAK

| IC50 [nM] | Binder |
| --- | --- |
| 13 | Fpro0084 IgG (antibody, V domains shown) VH: EVQLVESGGGLVKPGGSLRLSCAASGFTFSNAWMNWVRQAPGKGLEWVGRIKSKTDGGAADYAAPVKGRFTISRDDSKNTLYLQMNSLKTEDTAVYYCTTDQLGYDFWSGYYTDTLYYYFGMDVWGPGTTVTVSS VL: DIVMTQSPLSLPVTPGEPASISCRSSQQLQAYDGHNYLDWYLQKPGQSPQVLIYLGSNRASGVPDRFSGSGSGTDFTLKISRVEAEDVGVYYCMQALQTPLTFGGGTKVEIK |
| 32 | Hy38-1 IgG1 (antibody, V domains shown) VH: EVQLVESGGGLVKPGGSLRLSCAASGFTFSNAWMNWVRQAPGKGLEWVGRIKSKTDGGAADYAAPVKGRFTISRDDSKNTLYLQMNSLKTEDTAVYYCTTDQLGYDFWSGYYTDTLYYYFGMDVWGPGTTVTVSS VL: not shown |
| 14 | Fpro0067 IgG (antibody, V domains shown) VH: EVQLVESGGGLVKPGGSLRLSCAASGFTFSNAWMNWVRQAPGKGLEWVGRIKSKTDGGAADYAAPVKGRFTISRDDSKNTLYLQMNSLKTEDTAVYYCTTDQLGYDFWSGYYTDTLYYYFGMDVWGPGTTVTVSS VL: DIVMTQSPLSLPVTPGEPASISCRSSQPLLAMDGHNYLDWYLQKPGQSPQVLIYQSKWRASGVPDRFSGSGSGTDFTLKISRVEAEDVGVYYCMQALQTPLTFGGGTKVEIK |
